The target of assay [1] is T1, EGFP-Arc (EGFP tag at the N-terminus), expressed in U2OS cells (mouse), Q9WV31.
T1 chain: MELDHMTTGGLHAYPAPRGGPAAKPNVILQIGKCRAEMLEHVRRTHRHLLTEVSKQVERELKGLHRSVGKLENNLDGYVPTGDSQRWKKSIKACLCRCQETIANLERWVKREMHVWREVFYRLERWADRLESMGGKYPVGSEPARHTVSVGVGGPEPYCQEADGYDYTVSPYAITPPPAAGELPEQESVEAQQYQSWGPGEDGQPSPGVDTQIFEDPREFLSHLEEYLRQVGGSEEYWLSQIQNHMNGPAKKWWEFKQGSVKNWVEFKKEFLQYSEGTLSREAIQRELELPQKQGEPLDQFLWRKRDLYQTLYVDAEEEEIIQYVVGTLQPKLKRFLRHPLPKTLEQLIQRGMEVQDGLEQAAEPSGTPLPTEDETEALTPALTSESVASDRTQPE
The assay is described as follows: fluorescence fluctuation spectroscopy (brightness analysis); single-point FFS in the cytoplasm of living U2OS cells, ~200 nM to ~5 µM EGFP-tagged Arc; normalized brightness b against EGFP alone gives the average stoichiometry. The settings on record: remark: other sources report otherwise.

The target in assay [2] is T2, Arc-EGFP (EGFP tag at the C-terminus), expressed in U2OS cells (mouse), Q9WV31.
T2 chain: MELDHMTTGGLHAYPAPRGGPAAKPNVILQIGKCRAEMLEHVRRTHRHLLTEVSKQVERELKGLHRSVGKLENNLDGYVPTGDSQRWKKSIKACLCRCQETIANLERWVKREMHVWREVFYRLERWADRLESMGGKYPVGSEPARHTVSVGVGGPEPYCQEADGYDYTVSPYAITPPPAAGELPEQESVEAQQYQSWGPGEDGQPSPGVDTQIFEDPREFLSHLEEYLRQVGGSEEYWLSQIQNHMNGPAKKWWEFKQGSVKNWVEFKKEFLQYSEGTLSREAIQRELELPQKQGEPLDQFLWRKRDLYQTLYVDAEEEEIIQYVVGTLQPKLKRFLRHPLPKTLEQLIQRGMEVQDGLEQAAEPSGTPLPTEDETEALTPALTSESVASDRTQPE
The description is as above. The settings on record: remark: other sources report otherwise.

B1: EGFP-Arc (EGFP tag at the N-terminus), expressed in U2OS cells, Q9WV31 1-396 (natural protein)
chain: MELDHMTTGGLHAYPAPRGGPAAKPNVILQIGKCRAEMLEHVRRTHRHLLTEVSKQVERELKGLHRSVGKLENNLDGYVPTGDSQRWKKSIKACLCRCQETIANLERWVKREMHVWREVFYRLERWADRLESMGGKYPVGSEPARHTVSVGVGGPEPYCQEADGYDYTVSPYAITPPPAAGELPEQESVEAQQYQSWGPGEDGQPSPGVDTQIFEDPREFLSHLEEYLRQVGGSEEYWLSQIQNHMNGPAKKWWEFKQGSVKNWVEFKKEFLQYSEGTLSREAIQRELELPQKQGEPLDQFLWRKRDLYQTLYVDAEEEEIIQYVVGTLQPKLKRFLRHPLPKTLEQLIQRGMEVQDGLEQAAEPSGTPLPTEDETEALTPALTSESVASDRTQPE
In assay [1], B1 had a stoichiometry N (Arc molecules per particle) of 1 to 3.

B2: Arc-EGFP (EGFP tag at the C-terminus), expressed in U2OS cells, Q9WV31 1-396 (natural protein)
chain: MELDHMTTGGLHAYPAPRGGPAAKPNVILQIGKCRAEMLEHVRRTHRHLLTEVSKQVERELKGLHRSVGKLENNLDGYVPTGDSQRWKKSIKACLCRCQETIANLERWVKREMHVWREVFYRLERWADRLESMGGKYPVGSEPARHTVSVGVGGPEPYCQEADGYDYTVSPYAITPPPAAGELPEQESVEAQQYQSWGPGEDGQPSPGVDTQIFEDPREFLSHLEEYLRQVGGSEEYWLSQIQNHMNGPAKKWWEFKQGSVKNWVEFKKEFLQYSEGTLSREAIQRELELPQKQGEPLDQFLWRKRDLYQTLYVDAEEEEIIQYVVGTLQPKLKRFLRHPLPKTLEQLIQRGMEVQDGLEQAAEPSGTPLPTEDETEALTPALTSESVASDRTQPE
For B2, the stoichiometry N (Arc molecules per particle) in assay [2] was in the range of 1 to 3.

These data come from article PMC11203824.
